Results from patent US20230235299.

Target: N,N-dimethylated casein

B1: 3×HA-6His tag fusion transglutaminase (AO090023000250 of Aspergillus oryzae with a C-terminal 3×HA-6His tag) (protein)
chain: MAEETQVLSIQQRIAALNQAQVGQSPQAAASPLLGAQPTPFASRPAPSRQQTINNPPVNSHDSLGDRNEPTGAQPKPVPRPPPIPVQKPRAPPPLPARKASTESAPALPPRRPSGFSRKESRESLGSDVSHSTSTSAGRATIASTTSNNSDTIRSVRAPAWGAKLPPLPPKRQDTKTVQPPPRPRPSPANSSRSLSQGRPSLPPRRESTNSTSTNGNRSTSRPPPPLPSRINSDKSPGPSADTNGKQSTRKLPPPPPSSAALEKIQSSGLAGINRNTENSGKGTNGSVQEPQPNGVPPPVPRATRPDVDLAKLQATKPRLCKTTHSATAPSTMCLKCRDFSAPDAHAAQYPRESLPSYDLAWLARELTAPFPSPTDKARALFTWFHHNIEYDVHSFFNKCVKPSTPAGTLASGLAVCEGYASLFATLATHAGLEAVVVAGHGKGYGYDAPAPGSPIPPVSATGHAWSAVRIDNGQWKLLDACWGAGVVQGPGLPYKKQFNPAMFTDSNDEFGLRHFPSNRSHFFRDDGRPEITWEEYILGNPNSPLSAEQPTIFGDAQNHSIGERSFRPAAKQISIHDPSPLRFQFNLICEHWTLEHHTRAKPGLFLLMVHGLDGRQDDRLPFTHVRGSGPGGGGDFWYVDVPNAKILGAPGQKLAIAVLTSFGDRKDARGVTAEEYRQQVGRVGMAWAYIAEWQLV
For B1, the “polymerization of casein (SDS-PAGE, Coomassie blue staining)” value was “in the presence of the purified or unpurified 3×HA-6His tag fusion protein, polymerization of casein was observed”.
